Measured values from patent US20250163127A1.

Experiments:
CD28 (human) = CD28 (human) (UniProt P10747); experiment: flow cytometry, Jurkat cells (endogenous CD28), 100 nM, anti-Flag
human PD-1 (human) [1] = biological target: human PD-1 (human) (UniProt Q15116); experiment: flow cytometry, CHO/PD-1 cells, 100 nM, anti-Flag
human CTLA-4 (human) = experiment: flow cytometry, CHO/CTLA-4 cells, 100 nM, anti-Flag
human PD-1 (human) [2] = biological target: human PD-1 (human) (UniProt Q15116); experiment: flow cytometry, Jurkat/PD-1 cells, 50 nM
human PD-1 (human) [3] = biological target: human PD-1 (human) (UniProt Q15116)
CTLA-4 (human) = experiment: flow cytometry on HEK293 cells transfected with CTLA4
PD-L1 (human) = experiment: flow cytometry on HEK293 cells transfected with PD-L1
CD226 (human) = biological target: T1, CD226 (human) (UniProt Q15762); experiment: flow cytometry, transfected HEK293 cells
T1 sequence: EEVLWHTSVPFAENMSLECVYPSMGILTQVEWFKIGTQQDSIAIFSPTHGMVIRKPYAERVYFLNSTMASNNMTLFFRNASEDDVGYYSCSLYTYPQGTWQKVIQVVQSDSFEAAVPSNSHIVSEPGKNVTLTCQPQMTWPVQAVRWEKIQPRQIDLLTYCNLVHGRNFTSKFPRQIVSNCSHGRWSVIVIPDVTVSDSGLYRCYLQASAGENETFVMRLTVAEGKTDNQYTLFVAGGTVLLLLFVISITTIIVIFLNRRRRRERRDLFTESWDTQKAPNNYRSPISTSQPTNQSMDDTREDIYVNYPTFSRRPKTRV

CD96 (human) = biological target: T2, CD96 (human) (UniProt P40200); experiment: flow cytometry, transfected HEK293 cells
T2 sequence: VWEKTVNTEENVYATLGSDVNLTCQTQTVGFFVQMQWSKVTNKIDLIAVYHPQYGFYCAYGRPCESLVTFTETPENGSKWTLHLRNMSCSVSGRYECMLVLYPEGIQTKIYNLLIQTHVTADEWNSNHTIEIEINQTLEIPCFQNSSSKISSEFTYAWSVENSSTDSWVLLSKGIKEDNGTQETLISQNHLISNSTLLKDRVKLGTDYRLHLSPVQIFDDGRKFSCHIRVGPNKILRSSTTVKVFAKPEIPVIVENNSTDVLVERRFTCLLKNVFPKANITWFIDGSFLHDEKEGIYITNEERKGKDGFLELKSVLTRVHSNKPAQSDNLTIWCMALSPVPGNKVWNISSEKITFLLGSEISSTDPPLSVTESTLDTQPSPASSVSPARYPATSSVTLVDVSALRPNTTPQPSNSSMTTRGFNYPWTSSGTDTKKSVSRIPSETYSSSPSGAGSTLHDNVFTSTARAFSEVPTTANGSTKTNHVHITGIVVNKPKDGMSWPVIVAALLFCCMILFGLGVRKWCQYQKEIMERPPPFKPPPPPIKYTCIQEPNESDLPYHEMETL

Chain of human PD-1 (human) (Q15116 25-288): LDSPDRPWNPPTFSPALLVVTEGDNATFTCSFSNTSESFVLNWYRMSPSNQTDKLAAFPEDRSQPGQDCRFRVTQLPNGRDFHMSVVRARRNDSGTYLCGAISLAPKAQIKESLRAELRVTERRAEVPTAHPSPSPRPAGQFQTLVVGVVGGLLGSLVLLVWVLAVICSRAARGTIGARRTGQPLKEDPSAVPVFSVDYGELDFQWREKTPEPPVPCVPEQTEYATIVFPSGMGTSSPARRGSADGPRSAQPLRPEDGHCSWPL
Chain of PD-L1 (human) (chain, as listed by the source): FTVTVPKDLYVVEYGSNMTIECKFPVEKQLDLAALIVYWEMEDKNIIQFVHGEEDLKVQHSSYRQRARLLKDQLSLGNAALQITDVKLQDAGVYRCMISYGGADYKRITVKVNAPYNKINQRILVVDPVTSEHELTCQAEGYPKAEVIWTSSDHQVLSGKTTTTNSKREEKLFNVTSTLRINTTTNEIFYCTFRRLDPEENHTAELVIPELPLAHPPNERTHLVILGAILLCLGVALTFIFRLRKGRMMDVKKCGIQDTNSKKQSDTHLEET
Chain of human CTLA-4 (human) (chain, as listed by the source): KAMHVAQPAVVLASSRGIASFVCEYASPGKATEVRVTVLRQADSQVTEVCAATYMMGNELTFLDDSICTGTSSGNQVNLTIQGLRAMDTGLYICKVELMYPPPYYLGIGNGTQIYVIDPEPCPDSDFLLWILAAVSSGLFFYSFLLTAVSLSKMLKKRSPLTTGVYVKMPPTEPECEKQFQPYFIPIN

B1: ICOSL 2264 (monomeric variant ICOSL IgV N52H/N57Y/Q100R) (ligand)
chain: DTQEKEVRAMVGSDVELSCACPEGSRFDLNDVYVYWQTSESKTVVTYHIPQHSSLEYVDSRYRNRALMSPAGMLRGDFSLRLFNVTPQDEQKFHCLVLSRSLGFQEVLSVEVTLHVAANFSV
B1 gave an MFI (CD28 (human)) of 16100, an MFI (human PD-1 (human) [1]) of 1510 and an MFI (human CTLA-4 (human)) of 70800.

B2: Full length ECD of PD-L2, Fc fusion (Fc fusion)
chain: LFTVTVPKELYIIEHGSNVTLECNFDTGSHVNLGAITASLQKVENDTSPHRERATLLEEQLPLGKASFHIPQVQVRDEGQYQCIIIYGVAWDYKYLTLKVKASYRKINTHILKVPETDEVELTCQATGYPLAEVSWPNVSVPANTSHSRTPEGLYQVTSVLRLKPPPGRNFSCVFWNTHVRELTLASIDLQSQMEPRTHPT
B2 gave an MFI at 50 nM (human PD-1 (human) [2]) of 2140 MFI and an IFN gamma levels pg/mL (MLR) (human PD-1 (human) [3]) of 1170 pg/mL.

B3: Variant CD80 E35D/A71D Fc fusion (Table E14B) (Fc fusion)
chain: VIHVTKEVKEVATLSCGHNVSVEELAQTRIYWQKDKKMVLTMMSGDMNIWPEYKNRTIFDITNNLSIVILDLRPSDEGTYECVVLKYEKDAFKREHLAEVT
In the case of B3, the MFI at 66.6 nM (CTLA-4 (human)) is reported as 150000 MFI and the MFI at 22.2 nM (PD-L1 (human)) is reported as 13800 MFI.

B4: Variant CD80 E35G/K54E/A71D/L72P Fc fusion (Fc fusion)
chain: VIHVTKEVKEVATLSCGHNVSVEELAQTRIYWQKGKKMVLTMMSGDMNIWPEYENRTIFDITNNLSIVILDPRPSDEGTYECVVLKYEKDAFKREHLAEVT
With B4 the MFI at 22.2 nM (PD-L1 (human)) was 1580 MFI.

B5: variant CD155 IgV-Fc, S42L, S52Q, L104E (Fc fusion)
chain: WPPPGTGDVVVQAPTQVPGFLGDSVTLPCYLQVPNMEVTHVLQLTWARHGEQGSMAVFHQTQGPSYSESKRLEFVAARLGAELRNASLRMFGLRVEDEGNYTCEFVTFPQGSRSVDIWLRVL
In the case of B5, the MFI at 100 nM (CD226 (human)) is reported as 6470 and the MFI at 100 nM (CD96 (human)) is reported as 1700.

B6: variant CD155 IgV-Fc, T45Q, S52R, L104E (Fc fusion)
chain: WPPPGTGDVVVQAPTQVPGFLGDSVTLPCYLQVPNMEVTHVSQLQWARHGERGSMAVFHQTQGPSYSESKRLEFVAARLGAELRNASLRMFGLRVEDEGNYTCEFVTFPQGSRSVDIWLRVL
Work on B6 yielded an MFI at 100 nM (CD96 (human)) of 3750.
